The results in this text go back to patent publication US20100310646A1 (AARHUS UNIVERSITET, published 2010).

Where two headings read alike, the source gives them in different places.

In experiment [1] the target is T1, human pregnancy-associated plasma protein-A (PAPP-A) (human, UniProt Q13219 82-1627). The experiment can be described thus: cell-based or functional assay.
For experiment [2], the target named is T1, human pregnancy-associated plasma …. As to the kind of experiment: cell-based or functional assay. This is another data set of the same source.
Experiment [3] deals with T2, human PAPP-A(E483Q) (human, UniProt Q13219 82-1627).
T2 construct: Active-site mutant; also called immobilized PAPP-A (SPR)
The experiment can be described thus: SPR (BIAcore T100), PAPP-A immobilized on CM5 chip, PAC1 0.35-11 nM injected at 37 C, 1:1 model, global fit; SPR, 37 C, PAPP-A on the chip. Here is the method: (§1) A) Cleavage of IGFBP-4 (10 nM) by human PAPP-A (0.1 nM) in the presence of PAC1 (1.5 μM). The cleavage reaction was incubated (37° C.), and samples were taken out at intervals from 0 to 60 min, as indicated above each lane. The cleavage was visualized by SDS-PAGE followed by autoradiography. At 60 min, a faint band is visible at the position of the cleavage products (c). B) Cleavage of IGFBP-4 (10 nM) by murine PAPP-A (0.1 nM) for 1 h at 37° C. in the presence of 0-750 nM PAC1, as indicated above each lane. C) Cleavage of IGFBP-4 (10 nM) by PAPP-A (0.1 nM) was analyzed at different concentrations of PAC1. Relative initial velocities, determined independently, are plotted as a function of PAC1 concentration. All concentrations were determined by amino acid analysis (IGFBP-4 and PAC1) or ELISA (PAPP-A). Assuming competitive inhibition, an inhibitory constant was calculated (Kᵢ=1.2 nM±0.1). D) Sensorgrams showing binding of PAC1 to immobilized human PAPP-A. Purified PAC1 (0.35, 0.7, 1.4, 2.8, 5.5, and 11 nM) was injected onto the chip at 37° C. for 120 s followed by dissociation for 300 s.
(§2) Surface plasmon resonance analysis—Surface plasmon resonance experiments were carried out on a BIAcore T100 instrument (BIAcore AB, Uppsala, Sweden) using series S CM5 sensor chips and coupling reagents supplied by the manufacturer. Affinity purified PAPP-A(E483Q), 10 μg/mL in 10 mM sodium acetate, pH 5.0, was immobilized (at a level of 500 resonance units (RU)) to the activated chip at 25° C. Remaining activated groups were blocked by 1M ethanolamine. Purified antibodies (0.35-11 nM) diluted in 10 mM HEPES, 150 mM NaCl, 1 mM CaCl₂, 0.05% Tween-20, pH 7.4 (HBS), were injected over the sensor chip for 2 min at a flow rate of 30 μL/min at 37° C. Recorded signals were subtracted the background signal, determined by the injection of an irrelevant antibody. […] Data were analyzed using the software of the manufacturer (BIAcore T100 evaluation Software version 1.1).
In general terms: SPR reads the build-up and loss of mass on a sensor chip optically.

In experiment [4] the target is T1, human pregnancy-associated plasma …. As to the kind of experiment: inhibition of IGFBP-4 (10 nM) cleavage by human PAPP-A (0.1 nM), relative initial velocities against PAC1 concentration, competitive inhibition assumed; IGFBP-4 cleavage assay, competitive inhibition assumed. Here is the method: as §1, with “D) Sensorgrams showing binding of PAC1 to immobilized human PAPP-A. Purified PAC1 (0.35, 0.7, 1.4, 2.8, 5.5, and 11 nM) was injected onto the chip at 37° C. for 120 s followed by dissociation for 300 s.” left out
Measurement of proteolytic activity—Proteolytic activity of PAPP-A against IGFBP-4 and -5 was analyzed as previously described in detail (45). In brief, purified substrates, quantified by amino acid analysis, were labelled with ¹²⁵I (Amersham Biosciences). […] The degree of cleavage was determined by quantification of band intensities using a Typhoon imaging system (GE Healthcare), and background levels (mock signals) were subtracted. […]

Experiment [5] deals with human PAPP-A D1530A mutant (human, UniProt Q13219 82-1627). The experiment can be described thus: binding to alanine mutants of human PAPP-A (ELISA per paragraph 531). Here is the method: (§3) A, PAC1 binding to human PAPP-A/PAPP-A2 chimeras or truncated human PAPP-A variants analyzed by ELISA. Sequence derived from PAPP-A is shown by open bars, and absence of binding (−) or binding (+) is indicated. […] Samples with or without EDTA (10 mM) were injected (120 s) followed by dissociation (180 s) (solid lines). […] The absence of binding (−) or binding (+) is indicated. PAC5, which was used as a positive control, binds to an epitope of PAPP-A located N-terminal to CCP1.
(§4) Determination of antibody specificity and mapping of antibody binding—Mapping of antibody binding was carried out by ELISA using PAPP-A/PAPP-A2 chimeric proteins, and mutated variants of PAPP-A. The proteins were immobilized with polyclonal PAPP-A antibodies, and binding of phage antibodies were analyzed as detailed above.
(In general: ELISA stands for enzyme-linked immunosorbent assay.)

Another experiment deals with human PAPP-A(D1499A) (human, UniProt Q13219 82-1627). The description is as above. Here is the method:
as §3, §4

In another experiment the target is human PAPP-A(D1484A) (human, UniProt Q13219 82-1627). The experiment is described as above. How it is done:
as §3, §4

Experiment [6] concerns the target human PAPP-A R1529A mutant (human, UniProt Q13219 82-1627). The experiment is described as above. How it is done:
as §3, §4

The target of another experiment is human PAPP-A(D1502A) (human, UniProt Q13219 82-1627). The experiment is described as above. Here is the method:
as §3, §4

For experiment [7], the target named is T2, human PAPP-A(E483Q). The experiment can be described thus: SPR, calcium ion dependence of binding to immobilized PAPP-A. How it is done:
as §2
However, the binding was only disturbed when PAC1 was injected with EDTA onto a chip equilibrated with the calcium ion containing buffer (FIG. 8B). Following EDTA treatment, equilibration of the flow cell using calcium ion containing buffer restored its ability to bind PAC1 (FIG. 8B). […] Similar results were obtained with PAC2 (not shown).

For experiment [8], the target named is human PAPP-A K1509A mutant (human, UniProt Q13219 82-1627). The experiment can be described thus: binding to alanine mutants of human PAPP-A (ELISA per paragraph 531). Here is the method: as §3, §4
Experiment [9] deals with human PAPP-A D1525A mutant (human, UniProt Q13219 82-1627). The experiment is described as above. How it is done:
as §3, §4

Experiment [10] has as its target human PAPP-A E1535A mutant (human, UniProt Q13219 82-1627). Described as above. How it is done:
as §3, §4

T1 sequence (Q13219 other isoform, or with tags, fused parts or gaps limits assumed): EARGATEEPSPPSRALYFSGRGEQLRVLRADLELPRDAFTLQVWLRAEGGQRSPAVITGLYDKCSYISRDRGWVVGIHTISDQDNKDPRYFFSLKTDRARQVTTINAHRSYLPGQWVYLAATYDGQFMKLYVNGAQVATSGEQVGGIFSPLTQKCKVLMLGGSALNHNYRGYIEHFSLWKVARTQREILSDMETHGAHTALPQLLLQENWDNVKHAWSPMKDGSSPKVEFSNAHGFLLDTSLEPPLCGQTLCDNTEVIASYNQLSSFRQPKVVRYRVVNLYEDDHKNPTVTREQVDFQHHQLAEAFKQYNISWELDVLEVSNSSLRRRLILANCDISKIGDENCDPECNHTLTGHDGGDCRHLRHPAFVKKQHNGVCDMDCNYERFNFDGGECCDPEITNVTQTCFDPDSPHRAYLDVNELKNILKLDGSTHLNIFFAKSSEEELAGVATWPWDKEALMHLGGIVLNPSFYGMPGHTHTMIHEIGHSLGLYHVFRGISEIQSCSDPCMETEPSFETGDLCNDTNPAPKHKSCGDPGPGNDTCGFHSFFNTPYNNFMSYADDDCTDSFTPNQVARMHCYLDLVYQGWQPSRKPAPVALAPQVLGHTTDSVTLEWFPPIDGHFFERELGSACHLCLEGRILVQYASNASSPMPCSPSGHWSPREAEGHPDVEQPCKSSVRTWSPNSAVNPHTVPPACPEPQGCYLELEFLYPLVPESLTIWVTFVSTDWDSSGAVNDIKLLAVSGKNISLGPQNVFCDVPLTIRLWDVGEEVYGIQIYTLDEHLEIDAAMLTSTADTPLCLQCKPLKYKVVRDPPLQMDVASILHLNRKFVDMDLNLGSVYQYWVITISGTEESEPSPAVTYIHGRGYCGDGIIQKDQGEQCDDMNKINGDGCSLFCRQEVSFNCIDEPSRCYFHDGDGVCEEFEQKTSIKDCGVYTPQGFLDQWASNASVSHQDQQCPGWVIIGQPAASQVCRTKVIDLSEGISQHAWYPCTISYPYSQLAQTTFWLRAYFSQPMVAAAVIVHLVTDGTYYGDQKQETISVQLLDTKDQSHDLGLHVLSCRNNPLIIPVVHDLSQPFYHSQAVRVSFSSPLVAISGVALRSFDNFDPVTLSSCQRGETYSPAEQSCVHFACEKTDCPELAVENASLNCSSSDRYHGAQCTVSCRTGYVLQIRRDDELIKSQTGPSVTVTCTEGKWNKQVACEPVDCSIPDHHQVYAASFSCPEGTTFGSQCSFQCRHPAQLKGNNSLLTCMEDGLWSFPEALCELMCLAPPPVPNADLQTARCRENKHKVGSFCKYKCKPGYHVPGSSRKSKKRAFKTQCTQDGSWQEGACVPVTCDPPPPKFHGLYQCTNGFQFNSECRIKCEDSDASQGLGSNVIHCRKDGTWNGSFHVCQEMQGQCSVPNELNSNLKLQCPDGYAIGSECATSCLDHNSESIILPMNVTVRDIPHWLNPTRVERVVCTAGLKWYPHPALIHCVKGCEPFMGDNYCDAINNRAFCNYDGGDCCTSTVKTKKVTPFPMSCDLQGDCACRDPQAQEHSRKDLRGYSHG
T2 sequence (Q13219 other isoform, or with tags, fused parts or gaps E483Q E483Q limits assumed): as the sequence (Q13219 other isoform, or with tags, fused parts or gaps limits assumed) above, with E483Q counted along it
human PAPP-A D1530A mutant, sequence (Q13219 other isoform, or with tags, fused parts or gaps D1530A D1530A limits assumed): as the sequence (Q13219 other isoform, or with tags, fused parts or gaps limits assumed) above, with D1530A counted along it
human PAPP-A R1529A mutant, sequence (Q13219 other isoform, or with tags, fused parts or gaps R1529A R1529A limits assumed): as the sequence (Q13219 other isoform, or with tags, fused parts or gaps limits assumed) above, with R1529A counted along it
human PAPP-A(D1499A), sequence (Q13219 other isoform, or with tags, fused parts or gaps D1499A D1499A limits assumed): as the sequence (Q13219 other isoform, or with tags, fused parts or gaps limits assumed) above, with D1499A counted along it
human PAPP-A(D1484A), sequence (Q13219 other isoform, or with tags, fused parts or gaps D1484A D1484A limits assumed): as the sequence (Q13219 other isoform, or with tags, fused parts or gaps limits assumed) above, with D1484A counted along it
human PAPP-A(D1502A), sequence (Q13219 other isoform, or with tags, fused parts or gaps D1502A D1502A limits assumed): as the sequence (Q13219 other isoform, or with tags, fused parts or gaps limits assumed) above, with D1502A counted along it
human PAPP-A K1509A mutant, sequence (Q13219 other isoform, or with tags, fused parts or gaps K1509A K1509A limits assumed): as the sequence (Q13219 other isoform, or with tags, fused parts or gaps limits assumed) above, with K1509A counted along it
human PAPP-A D1525A mutant, sequence (Q13219 other isoform, or with tags, fused parts or gaps D1525A D1525A limits assumed): as the sequence (Q13219 other isoform, or with tags, fused parts or gaps limits assumed) above, with D1525A counted along it
human PAPP-A E1535A mutant, sequence (Q13219 other isoform, or with tags, fused parts or gaps E1535A E1535A limits assumed): as the sequence (Q13219 other isoform, or with tags, fused parts or gaps limits assumed) above, with E1535A counted along it

B1: PAC1 (PAPP-A exosite antibody, scFv) (scFv)
scFv: EVQLLESGGGLVQPGGSLRLSCAASGFTFSSYAMSWVRQAPGKGLEWVSVITDMGRTTRYADSVKGRFTISRDNSKNTLYLQMNSLRAEDTAVYYCAKGLRQFDYWGQGTLVTVSSGGGGSGGGGSGGGGSTDIQMTQSPSSLSASVGDRVTITCRASQSISSYLNWYQQKPGKAPKLLIYHASQLQSGVPSRFSGSGSGTDFTLTISSLQPEDFATYYCQQYGGNPTTFGQGTKVEIKRAAAHHHHHHGAAEQKLISEEDLNGAA
notes: Selected from the Tomlinson I+J phage libraries and produced in E. coli HB2151; Purified scFv was used in SPR and cleavage assays; also called scFv PAC1; antibody PAC1
In the case of B1, the “IC50 (read off the curve)” value in experiment [1] is around 1 nM; in experiment [2], around 2 nM. The same molecule showed a Kd with human PAPP-A(E483Q) [3] of 0.25 nM. This molecule returned a koff in the experiment with human PAPP-A(E483Q) [3] of 0.00109 s⁻¹. In the experiment with human PAPP-A(E483Q) [3], the kon was determined as 4.36e+06 M⁻¹ s⁻¹. Also, the Ki in experiment [4] came out at 1.2 nM. The binding result (in experiment [5]; with human PAPP-A(D1499A); with human PAPP-A(D1484A); in [6]; with human PAPP-A(D1502A)) was “no binding” in each case.

B2: PAC2 (PAPP-A exosite antibody, scFv) (scFv)
scFv: EVQLLESGGGLVQPGGSLRLSCAASGFTFSSYAMSWVRQAPGKGLEWVSSIQADGTRTGYADSVKGRFTISRDNSKNTLYLQMNSLRAEDTAVYYCAKQRGIFDYWGQGTLVTVSSGGGGSGGGGSGGGGSTDIQMTQSPSSLSASVGDRVTITCRASQSISSYLNWYQQKPGKAPKLLIYRASGLQSGVPSRFSGSGSGTDFTLTISSLQPEDFATYYCQQSHHYPSTFGQGTKVEIKRAAAHHHHHHGAAEQKLISEEDLNGAA
notes: Selected from the Tomlinson I+J phage libraries; also called scFv PAC2
As for B2, the binding result with human PAPP-A(E483Q) [7] is given as “binds”; in experiment [8], “binds”; in experiment [5], “no binding”; in experiment [9], “binds”; in the experiment with human PAPP-A(D1499A), “no binding”; with human PAPP-A(D1484A), “no binding”. The values for the binding result (in [6]; with human PAPP-A(D1502A); in experiment [10]) were “no binding”, “no binding” and “binds”, respectively.

By Kd is commonly meant a measure of binding affinity in units of concentration. A low value points to tighter binding. One may read the koff as the first-order rate constant of dissociation. By kon is commonly meant the second-order rate constant of association. A high value points to faster complex formation. The term Ki denotes the dissociation constant of the complex between target and ligand, obtained from inhibition or displacement. Low values mean higher affinity, high ones lower affinity.
